From US20240279278A1, “NMU RECEPTOR 2 AGONISTS” (Boehringer Ingelheim International GmbH, priority 2023, published 2024) come the findings set out here.

Starred links: 1 amine or outer side, 2 acyl side, 3 side chain; linkers in the order of their positions; H or OH if unused. Non-standard residues stand in square brackets, D forms with d. *: point of attachment. Pipz(1-CH2CO,4-CH2CH2NH) = O=C(CN1CCN(CCN[*:1])CC1)[*:2]; C18 diacid = O=C(O)CCCCCCCCCCCCCCCCC(=O)*; γGlu = O=C(O)[C@H](CCC(=O)[*:2])N[*:1]; 2Pal = N[C@@H](Cc1ccccn1)C(=O)O; NMeL = CN[C@@H](CC(C)C)C(=O)O; NMeA = CN[C@@H](C)C(=O)O; Nle = CCCC[C@H](N)C(=O)O; Sar = CNCC(=O)O

The assay addresses T1, human neuromedin U receptor 1 (human, UniProt Q9HB89 24-426).
T1 sequence (looked up): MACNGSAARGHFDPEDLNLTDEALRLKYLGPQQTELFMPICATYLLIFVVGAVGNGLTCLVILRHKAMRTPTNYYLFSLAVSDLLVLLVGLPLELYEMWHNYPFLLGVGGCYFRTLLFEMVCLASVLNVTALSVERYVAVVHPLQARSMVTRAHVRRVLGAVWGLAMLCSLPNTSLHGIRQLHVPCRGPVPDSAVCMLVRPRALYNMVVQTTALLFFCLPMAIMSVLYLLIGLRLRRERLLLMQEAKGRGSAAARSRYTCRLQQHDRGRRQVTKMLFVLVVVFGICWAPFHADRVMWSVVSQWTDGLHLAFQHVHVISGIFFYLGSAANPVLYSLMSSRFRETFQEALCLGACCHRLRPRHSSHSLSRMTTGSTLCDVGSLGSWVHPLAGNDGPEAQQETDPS
Nature of the assay: cell-based or functional assay.

B1: C18DA-gGlu3-Sar15-AEPipAc-Tyr-Phe-NMeLeu-Nle-Lys-NMeAla-Arg-Gly-NH2 (peptide)
peptide: EEEXXXXXXXXXXXXXXXXYFLXKARG
HELM: PEPTIDE1{[O=C(O)CCCCCCCCCCCCCCCCC(=O)[*:2]].[gGlu].[gGlu].[gGlu].[Sar].[Sar].[Sar].[Sar].[Sar].[Sar].[Sar].[Sar].[Sar].[Sar].[Sar].[Sar].[Sar].[Sar].[Sar].[O=C(CN1CCN(CCN[*:1])CC1)[*:2]].Y.F.[meL].[Nle].K.[meA].R.G.[am]}$$$$V2.0
SMILES: CCCC[C@H](NC(=O)[C@H](CC(C)C)N(C)C(=O)[C@H](Cc1ccccc1)NC(=O)[C@H](Cc1ccc(O)cc1)NC(=O)CN1CCN(CCNC(=O)CN(C)C(=O)CN(C)C(=O)CN(C)C(=O)CN(C)C(=O)CN(C)C(=O)CN(C)C(=O)CN(C)C(=O)CN(C)C(=O)CN(C)C(=O)CN(C)C(=O)CN(C)C(=O)CN(C)C(=O)CN(C)C(=O)CN(C)C(=O)CN(C)C(=O)CC[C@H](NC(=O)CC[C@H](NC(=O)CC[C@H](NC(=O)CCCCCCCCCCCCCCCCC(=O)O)C(=O)O)C(=O)O)C(=O)O)CC1)C(=O)N[C@@H](CCCCN)C(=O)N(C)[C@@H](C)C(=O)N[C@@H](CCCNC(=N)N)C(=O)NCC(N)=O
As to B1, the “EC50 (hNMUR1) buffer” value was more than 1000 nM.

B2: C20DA-gGlu3-Sar15-AEPipAc-Tyr-Phe-NMeLeu-Nle-Lys-Pro-Arg-Gly-NH2 (peptide)
peptide: EEEXXXXXXXXXXXXXXXXYFLXKPRG
HELM: PEPTIDE1{[O=C(O)CCCCCCCCCCCCCCCCCCC(=O)[*:2]].[gGlu].[gGlu].[gGlu].[Sar].[Sar].[Sar].[Sar].[Sar].[Sar].[Sar].[Sar].[Sar].[Sar].[Sar].[Sar].[Sar].[Sar].[Sar].[O=C(CN1CCN(CCN[*:1])CC1)[*:2]].Y.F.[meL].[Nle].K.P.R.G.[am]}$$$$V2.0
SMILES: CCCC[C@H](NC(=O)[C@H](CC(C)C)N(C)C(=O)[C@H](Cc1ccccc1)NC(=O)[C@H](Cc1ccc(O)cc1)NC(=O)CN1CCN(CCNC(=O)CN(C)C(=O)CN(C)C(=O)CN(C)C(=O)CN(C)C(=O)CN(C)C(=O)CN(C)C(=O)CN(C)C(=O)CN(C)C(=O)CN(C)C(=O)CN(C)C(=O)CN(C)C(=O)CN(C)C(=O)CN(C)C(=O)CN(C)C(=O)CN(C)C(=O)CC[C@H](NC(=O)CC[C@H](NC(=O)CC[C@H](NC(=O)CCCCCCCCCCCCCCCCCCC(=O)O)C(=O)O)C(=O)O)C(=O)O)CC1)C(=O)N[C@@H](CCCCN)C(=O)N1CCC[C@H]1C(=O)N[C@@H](CCCNC(=N)N)C(=O)NCC(N)=O
With B2, the “EC50 (hNMUR1) buffer” value is 1300 nM.

B3: C18DA-gGlu3-Sar15-AEPipAc-Tyr-Phe-NMeLeu-Nle-2Pal-NMeAla-Arg-Gly-NH2 (peptide)
peptide: {C18 diacid}-[γGlu][γGlu][γGlu][Sar][Sar][Sar][Sar][Sar][Sar][Sar][Sar][Sar][Sar][Sar][Sar][Sar][Sar][Sar][Pipz(1-CH2CO,4-CH2CH2NH)]YF[NMeL][Nle][2Pal][NMeA]RG-NH2
SMILES: CCCC[C@H](NC(=O)[C@H](CC(C)C)N(C)C(=O)[C@H](Cc1ccccc1)NC(=O)[C@H](Cc1ccc(O)cc1)NC(=O)CN1CCN(CCNC(=O)CN(C)C(=O)CN(C)C(=O)CN(C)C(=O)CN(C)C(=O)CN(C)C(=O)CN(C)C(=O)CN(C)C(=O)CN(C)C(=O)CN(C)C(=O)CN(C)C(=O)CN(C)C(=O)CN(C)C(=O)CN(C)C(=O)CN(C)C(=O)CN(C)C(=O)CC[C@H](NC(=O)CC[C@H](NC(=O)CC[C@H](NC(=O)CCCCCCCCCCCCCCCCC(=O)O)C(=O)O)C(=O)O)C(=O)O)CC1)C(=O)N[C@@H](Cc1ccccn1)C(=O)N(C)[C@@H](C)C(=O)N[C@@H](CCCNC(=N)N)C(=O)NCC(N)=O
Consider B3, for which the “EC50 (hNMUR1) buffer” value is more than 1000 nM.

B4: C20DA-gGlu3-Sar15-AEPipAc-Tyr-Phe-NMeLeu-Nle-Lys-NMeAla-Arg-Gly-NH2 (peptide)
peptide: EEEXXXXXXXXXXXXXXXXYFLXKARG
HELM: PEPTIDE1{[O=C(O)CCCCCCCCCCCCCCCCCCC(=O)[*:2]].[gGlu].[gGlu].[gGlu].[Sar].[Sar].[Sar].[Sar].[Sar].[Sar].[Sar].[Sar].[Sar].[Sar].[Sar].[Sar].[Sar].[Sar].[Sar].[O=C(CN1CCN(CCN[*:1])CC1)[*:2]].Y.F.[meL].[Nle].K.[meA].R.G.[am]}$$$$V2.0
SMILES: CCCC[C@H](NC(=O)[C@H](CC(C)C)N(C)C(=O)[C@H](Cc1ccccc1)NC(=O)[C@H](Cc1ccc(O)cc1)NC(=O)CN1CCN(CCNC(=O)CN(C)C(=O)CN(C)C(=O)CN(C)C(=O)CN(C)C(=O)CN(C)C(=O)CN(C)C(=O)CN(C)C(=O)CN(C)C(=O)CN(C)C(=O)CN(C)C(=O)CN(C)C(=O)CN(C)C(=O)CN(C)C(=O)CN(C)C(=O)CN(C)C(=O)CC[C@H](NC(=O)CC[C@H](NC(=O)CC[C@H](NC(=O)CCCCCCCCCCCCCCCCCCC(=O)O)C(=O)O)C(=O)O)C(=O)O)CC1)C(=O)N[C@@H](CCCCN)C(=O)N(C)[C@@H](C)C(=O)N[C@@H](CCCNC(=N)N)C(=O)NCC(N)=O
For the molecule B4, the “EC50 (hNMUR1) buffer” value was more than 1000 nM.

B5: C18DA-gGlu3-Sar15-AEPipAc-Tyr-Phe-NMeLeu-Nle-His-Pro-Arg-Gly-NH2 (peptide)
peptide: EEEXXXXXXXXXXXXXXXXYFLXHPRG
HELM: PEPTIDE1{[O=C(O)CCCCCCCCCCCCCCCCC(=O)[*:2]].[gGlu].[gGlu].[gGlu].[Sar].[Sar].[Sar].[Sar].[Sar].[Sar].[Sar].[Sar].[Sar].[Sar].[Sar].[Sar].[Sar].[Sar].[Sar].[O=C(CN1CCN(CCN[*:1])CC1)[*:2]].Y.F.[meL].[Nle].H.P.R.G.[am]}$$$$V2.0
SMILES: CCCC[C@H](NC(=O)[C@H](CC(C)C)N(C)C(=O)[C@H](Cc1ccccc1)NC(=O)[C@H](Cc1ccc(O)cc1)NC(=O)CN1CCN(CCNC(=O)CN(C)C(=O)CN(C)C(=O)CN(C)C(=O)CN(C)C(=O)CN(C)C(=O)CN(C)C(=O)CN(C)C(=O)CN(C)C(=O)CN(C)C(=O)CN(C)C(=O)CN(C)C(=O)CN(C)C(=O)CN(C)C(=O)CN(C)C(=O)CN(C)C(=O)CC[C@H](NC(=O)CC[C@H](NC(=O)CC[C@H](NC(=O)CCCCCCCCCCCCCCCCC(=O)O)C(=O)O)C(=O)O)C(=O)O)CC1)C(=O)N[C@@H](Cc1c[nH]cn1)C(=O)N1CCC[C@H]1C(=O)N[C@@H](CCCNC(=N)N)C(=O)NCC(N)=O
As for B5, the “EC50 (hNMUR1) buffer” value was more than 1000 nM.

B6: C18DA-gGlu3-Sar15-AEPipAc-Tyr-Phe-NMeLeu-Nle-NMeArg-Pro-Arg-Gly-NH2 (peptide)
peptide: EEEXXXXXXXXXXXXXXXXYFLXRPRG
HELM: PEPTIDE1{[O=C(O)CCCCCCCCCCCCCCCCC(=O)[*:2]].[gGlu].[gGlu].[gGlu].[Sar].[Sar].[Sar].[Sar].[Sar].[Sar].[Sar].[Sar].[Sar].[Sar].[Sar].[Sar].[Sar].[Sar].[Sar].[O=C(CN1CCN(CCN[*:1])CC1)[*:2]].Y.F.[meL].[Nle].[meR].P.R.G.[am]}$$$$V2.0
SMILES: CCCC[C@H](NC(=O)[C@H](CC(C)C)N(C)C(=O)[C@H](Cc1ccccc1)NC(=O)[C@H](Cc1ccc(O)cc1)NC(=O)CN1CCN(CCNC(=O)CN(C)C(=O)CN(C)C(=O)CN(C)C(=O)CN(C)C(=O)CN(C)C(=O)CN(C)C(=O)CN(C)C(=O)CN(C)C(=O)CN(C)C(=O)CN(C)C(=O)CN(C)C(=O)CN(C)C(=O)CN(C)C(=O)CN(C)C(=O)CN(C)C(=O)CC[C@H](NC(=O)CC[C@H](NC(=O)CC[C@H](NC(=O)CCCCCCCCCCCCCCCCC(=O)O)C(=O)O)C(=O)O)C(=O)O)CC1)C(=O)N(C)[C@@H](CCCNC(=N)N)C(=O)N1CCC[C@H]1C(=O)N[C@@H](CCCNC(=N)N)C(=O)NCC(N)=O
B6: the “EC50 (hNMUR1) buffer” value is 200 nM.
